Source: IntAct's records for PubMed 31515488

B1: Germ cell-less protein-like 1 (Homo sapiens), Q96IK5 (parent)
chain: MGSLSSRVLRQPRPALAQQAQGARAGGSARRPDTGDDAAGHGFCYCAGSHKRKRSSGSFCYCHPDSETDEDEEEGDEQQRLLNTPRRKKLKSTSKYIYQTLFLNGENSDIKICALGEEWSLHKIYLCQSGYFSSMFSGSWKESSMNIIELEIPDQNIDVEALQVAFGSLYRDDVLIKPSRVVAILAAACLLQLDGLIQQCGETMKETVNVKTVCGYYTSAGTYGLDSVKKKCLEWLLNNLMTHQNVELFKELSINVMKQLIGSSNLFVMQVEMDIYTALKKWMFLQLVPSWNGSLKQLLTETDVWFSKQRKDFEGMAFLETEQGKPFVSVFRHLRLQYIISDLASARIIEQDAVVPSEWLSSVYKQQWFAMLRAEQDSEVGPQEINKEELEGNSMRCGRKLAKDGEYCWRWTGFNFGFDLLVTYTNRYIIFKRNTLNQPCSGSVSLQPRRSIAFRLRLASFDSSGKLICSRTTGYQILTLEKDQEQVVMNLDSRLLIFPLYICCNFLYISPEKKN
partner: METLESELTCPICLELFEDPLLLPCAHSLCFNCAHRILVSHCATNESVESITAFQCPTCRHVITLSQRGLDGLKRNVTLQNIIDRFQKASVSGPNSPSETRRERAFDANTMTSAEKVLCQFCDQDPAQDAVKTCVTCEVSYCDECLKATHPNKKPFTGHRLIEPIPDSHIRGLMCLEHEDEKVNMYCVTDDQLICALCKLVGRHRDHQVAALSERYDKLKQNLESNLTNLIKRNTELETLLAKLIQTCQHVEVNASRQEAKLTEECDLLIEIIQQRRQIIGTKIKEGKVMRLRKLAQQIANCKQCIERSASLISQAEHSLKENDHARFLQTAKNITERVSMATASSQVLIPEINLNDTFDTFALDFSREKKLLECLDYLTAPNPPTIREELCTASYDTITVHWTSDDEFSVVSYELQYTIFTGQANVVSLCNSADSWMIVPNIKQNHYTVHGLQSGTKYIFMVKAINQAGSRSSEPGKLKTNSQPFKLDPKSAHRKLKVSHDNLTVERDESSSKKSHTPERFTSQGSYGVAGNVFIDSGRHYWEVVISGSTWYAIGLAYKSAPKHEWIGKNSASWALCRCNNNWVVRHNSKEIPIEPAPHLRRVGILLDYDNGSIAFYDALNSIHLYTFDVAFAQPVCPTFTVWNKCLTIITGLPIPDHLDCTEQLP
B2: Zinc finger protein 511 (Homo sapiens), Q8NB15 (parent)
chain: MQLPPALCARLAAGPGAAEPLPVERDPAAGAAPFRFVARPVRFPREHQFFEDGDVQRHLYLQDVIMQVADVPEKPRVPAFACQVAGCCQVFDALDDYEHHYHTLHGNVCSFCKRAFPSGHLLDAHILEWHDSLFQILSERQDMYQCLVEGCTEKFKTSRDRKDHMVRMHLYPADFRFDKPKKSRSPASAEAPGDSGERSEGEAMEICSEPVAASPAPAGERRIYRHRIPSTICFGQGAARGFKSNKKKTKQC
partner: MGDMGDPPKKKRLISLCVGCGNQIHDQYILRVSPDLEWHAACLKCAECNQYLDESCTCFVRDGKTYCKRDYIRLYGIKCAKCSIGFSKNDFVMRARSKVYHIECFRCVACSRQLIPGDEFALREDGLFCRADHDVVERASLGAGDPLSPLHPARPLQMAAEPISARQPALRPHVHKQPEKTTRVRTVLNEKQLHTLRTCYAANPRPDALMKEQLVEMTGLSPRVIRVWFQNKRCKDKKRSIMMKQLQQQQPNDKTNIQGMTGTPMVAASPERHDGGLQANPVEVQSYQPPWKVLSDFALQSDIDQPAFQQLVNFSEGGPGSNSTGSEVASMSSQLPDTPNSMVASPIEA
B3: Zyxin (Homo sapiens), Q15942 (parent)
chain: MAAPRPSPAISVSVSAPAFYAPQKKFGPVVAPKPKVNPFRPGDSEPPPAPGAQRAQMGRVGEIPPPPPEDFPLPPPPLAGDGDDAEGALGGAFPPPPPPIEESFPPAPLEEEIFPSPPPPPEEEGGPEAPIPPPPQPREKVSSIDLEIDSLSSLLDDMTKNDPFKARVSSGYVPPPVATPFSSKSSTKPAAGGTAPLPPWKSPSSSQPLPQVPAPAQSQTQFHVQPQPQPKPQVQLHVQSQTQPVSLANTQPRGPPASSPAPAPKFSPVTPKFTPVASKFSPGAPGGSGSQPNQKLGHPEALSAGTGSPQPPSFTYAQQREKPRVQEKQHPVPPPAQNQNQVRSPGAPGPLTLKEVEELEQLTQQLMQDMEHPQRQNVAVNELCGRCHQPLARAQPAVRALGQLFHIACFTCHQCAQQLQGQQFYSLEGAPYCEGCYTDTLEKCNTCGEPITDRMLRATGKAYHPHCFTCVVCARPLEGTSFIVDQANRPHCVPDYHKQYAPRCSVCSEPIMPEPGRDETVRVVALDKNFHMKCYKCEDCGKPLSIEADDNGCFPLDGHVLCRKCHTARAQT
partner: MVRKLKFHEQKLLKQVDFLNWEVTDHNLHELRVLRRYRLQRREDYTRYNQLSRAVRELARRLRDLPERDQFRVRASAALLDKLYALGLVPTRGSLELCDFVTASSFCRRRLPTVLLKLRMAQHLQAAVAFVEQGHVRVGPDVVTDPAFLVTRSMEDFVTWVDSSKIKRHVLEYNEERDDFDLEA

Variants of: B1
Conditions: with tri18_human MID1, O15344

Row | effect of a mutation on the interaction | Variant
1 | with no effect | K123R
2 | with no effect | E77K
3 | with no effect | Y61S
4 | with no effect | I340V
5 | with no effect | R449Q
6 | with no effect | K281Q
7 | with no effect | R457H
8 | with no effect | I147V

Variants of: B2
Conditions: with isl1_human ISL1, P61371

Row | effect of a mutation on the interaction | Variant
9 | with no effect | S195N
10 | with no effect | D123N

Variants of: B3
Conditions: with imp3_human IMP3, Q9NV31

Row | effect of a mutation on the interaction | Variant
11 | with no effect | R489W
